The results in this text go back to publication PMC6165545.

This assay addresses growth hormone secretagogue receptor-type 1a tagged with enhanced green fluorescent protein (GHSR-1a-EGFP), stably expressed in HEK293A cells (UniProt Q92847).
Sequence of UniProt Q92847 (Q92847 whole entry): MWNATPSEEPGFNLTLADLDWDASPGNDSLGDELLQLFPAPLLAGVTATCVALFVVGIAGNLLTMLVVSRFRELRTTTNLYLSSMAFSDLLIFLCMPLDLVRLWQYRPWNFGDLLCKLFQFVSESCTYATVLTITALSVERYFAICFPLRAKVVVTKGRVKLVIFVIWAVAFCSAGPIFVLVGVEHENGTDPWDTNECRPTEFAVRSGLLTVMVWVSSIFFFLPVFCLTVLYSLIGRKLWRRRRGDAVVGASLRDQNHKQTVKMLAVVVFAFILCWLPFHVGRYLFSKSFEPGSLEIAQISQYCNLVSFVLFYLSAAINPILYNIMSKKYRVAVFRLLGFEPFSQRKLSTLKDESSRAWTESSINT

In the case of casein-derived hydrolysate (CasHyd), the intracellular Ca2+ mobilisation in HEK293A cells stably expressing GHSR-1a-EGFP, EC50 stood at 270 µg/mL and the intracellular Ca2+ mobilisation in HEK293A cells stably expressing GHSR-1a-EGFP, Emax as percentage of the control (3.3% FBS) was 149%. Regarding ghrelin (rat) (peptide), the intracellular Ca2+ mobilisation in HEK293A cells stably expressing GHSR-1a-EGFP, Emax as percentage of the control (3.3% FBS) is 132%.
